This is an account of results in patent publication US20250313605A1.

The target of experiment [1] is T1, human GIP receptor (human), P48546.
T1 chain: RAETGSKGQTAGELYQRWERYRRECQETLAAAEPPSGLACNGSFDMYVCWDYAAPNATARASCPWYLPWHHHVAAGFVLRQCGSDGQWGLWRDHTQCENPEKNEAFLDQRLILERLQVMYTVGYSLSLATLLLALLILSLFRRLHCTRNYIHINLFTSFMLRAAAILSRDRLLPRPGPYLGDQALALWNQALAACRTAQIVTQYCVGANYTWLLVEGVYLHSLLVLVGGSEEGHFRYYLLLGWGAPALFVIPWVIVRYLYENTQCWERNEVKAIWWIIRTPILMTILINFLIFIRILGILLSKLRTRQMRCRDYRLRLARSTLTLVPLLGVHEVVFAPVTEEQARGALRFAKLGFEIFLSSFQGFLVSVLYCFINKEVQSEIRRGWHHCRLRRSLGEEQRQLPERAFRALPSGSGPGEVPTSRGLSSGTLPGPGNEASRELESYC
Briefly: cell-based or functional assay.

Experiment [2] deals with T2, human GLP-1 receptor (human), P43220.
T2 chain: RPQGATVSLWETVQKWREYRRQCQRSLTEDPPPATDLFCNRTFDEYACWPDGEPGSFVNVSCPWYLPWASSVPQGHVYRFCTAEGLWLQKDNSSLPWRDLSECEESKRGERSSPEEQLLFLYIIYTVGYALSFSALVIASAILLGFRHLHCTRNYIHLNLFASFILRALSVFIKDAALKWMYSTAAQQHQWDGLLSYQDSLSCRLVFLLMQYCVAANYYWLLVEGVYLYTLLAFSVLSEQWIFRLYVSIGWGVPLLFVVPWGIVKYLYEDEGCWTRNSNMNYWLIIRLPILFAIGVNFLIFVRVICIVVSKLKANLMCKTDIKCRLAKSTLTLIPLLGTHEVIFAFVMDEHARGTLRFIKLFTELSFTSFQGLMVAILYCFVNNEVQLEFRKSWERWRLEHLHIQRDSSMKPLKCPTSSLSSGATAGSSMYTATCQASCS
In words: cell-based or functional assay.

Experiment [3] deals with human glucagon receptor (human), P47871. Briefly: cell-based or functional assay.
human glucagon receptor (human), P47871, sequence (P47871 26-477): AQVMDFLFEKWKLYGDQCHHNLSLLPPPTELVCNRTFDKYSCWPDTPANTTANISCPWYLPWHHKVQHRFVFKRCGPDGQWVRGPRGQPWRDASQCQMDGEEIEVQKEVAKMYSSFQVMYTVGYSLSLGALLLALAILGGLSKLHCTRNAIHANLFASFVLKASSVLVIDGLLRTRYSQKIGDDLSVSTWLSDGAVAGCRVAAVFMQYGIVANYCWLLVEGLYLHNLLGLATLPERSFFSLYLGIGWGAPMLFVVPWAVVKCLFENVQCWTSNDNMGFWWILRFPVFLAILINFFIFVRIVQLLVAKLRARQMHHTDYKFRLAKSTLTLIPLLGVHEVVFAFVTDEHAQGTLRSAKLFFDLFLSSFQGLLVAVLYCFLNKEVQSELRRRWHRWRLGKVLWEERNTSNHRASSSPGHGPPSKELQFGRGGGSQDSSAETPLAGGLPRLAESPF
Experiment [4] has as its target T1, human GIP receptor (human), P48546. In words: radioligand competition SPA, HEK293 membranes. A general note: Loss of bound radioactivity is the signal in a displacement assay; it reports binding, not function.
Experiment [5] concerns the target T2, human GLP-1 receptor (human), P43220. In words: radioligand competition SPA, HEK293 membranes.
Experiment [6] deals with human glucagon receptor (human), P47871. In words: radioligand competition SPA, HEK293 membranes.

*1 amine or outer side, *2 acyl side, *3 side chain or, on linkers, in order; H or OH if unused. Where no end group is shown, it is not given here. Side-chain parts run from the residue outwards. [ ]: non-standard residue; d: D form. The star is where a group is joined. C20 diacid = O=C(O)CCCCCCCCCCCCCCCCCCC(=O)*; γGlu = O=C(O)[C@H](CCC(=O)[*:2])N[*:1]; αMeL = CC(C)C[C@](C)(N)C(=O)O; αMeK = C[C@](N)(CCCCN)C(=O)O; AEEA = NCCOCCOCC(=O)O; Aib = CC(C)(N)C(=O)O

B1: Example 2 (peptide)
peptide: Y[Aib]QGTFTSDYSI[αMeL]LDKK([AEEA-γGlu-C20 diacid])AQHAFIEYLLA[Aib]GPSSGAPPPS-NH2
modifications: N-terminus assumed
SMILES: CC[C@H](C)[C@H](NC(=O)[C@H](Cc1ccccc1)NC(=O)[C@H](C)NC(=O)[C@H](Cc1c[nH]cn1)NC(=O)[C@H](CCC(N)=O)NC(=O)[C@H](C)NC(=O)[C@H](CCCCNC(=O)COCCOCCNC(=O)CC[C@H](NC(=O)CCCCCCCCCCCCCCCCCCC(=O)O)C(=O)O)NC(=O)[C@H](CCCCN)NC(=O)[C@H](CC(=O)O)NC(=O)[C@H](CC(C)C)NC(=O)[C@](C)(CC(C)C)NC(=O)[C@@H](NC(=O)[C@H](CO)NC(=O)[C@H](Cc1ccc(O)cc1)NC(=O)[C@H](CC(=O)O)NC(=O)[C@H](CO)NC(=O)[C@@H](NC(=O)[C@H](Cc1ccccc1)NC(=O)[C@@H](NC(=O)CNC(=O)[C@H](CCC(N)=O)NC(=O)C(C)(C)NC(=O)[C@@H](N)Cc1ccc(O)cc1)[C@@H](C)O)[C@@H](C)O)[C@@H](C)CC)C(=O)N[C@@H](CCC(=O)O)C(=O)N[C@@H](Cc1ccc(O)cc1)C(=O)N[C@@H](CC(C)C)C(=O)N[C@@H](CC(C)C)C(=O)N[C@@H](C)C(=O)NC(C)(C)C(=O)NCC(=O)N1CCC[C@H]1C(=O)N[C@@H](CO)C(=O)N[C@@H](CO)C(=O)NCC(=O)N[C@@H](C)C(=O)N1CCC[C@H]1C(=O)N1CCC[C@H]1C(=O)N1CCC[C@H]1C(=O)N[C@@H](CO)C(N)=O
In the case of B1, the figures for the cAMP EC50 (0.1% casein) in experiment [1], in experiment [2] and in experiment [3] were 0.0474 nM, 0.207 nM and 0.0553 nM, respectively. Further, the cAMP EC50 (FBS and BSA present) in experiment [1] stood at 2.19 nM; in experiment [2], 12.8 nM; in experiment [3] it was 2.66 nM. For the same molecule, the Ki – broadly, a dissociation constant, usually derived from enzyme kinetics or from competition with a known ligand – in experiment [4] amounted to 0.0665 nM; in experiment [5], 4.5 nM; in experiment [6], 3.71 nM.

B2: Example 9 (peptide)
peptide: Y[Aib]QGTFTSDYSI[αMeL]LDKK([γGlu-γGlu-C20 diacid])AQHAFIEYLLEGGPSSGAPPPS-NH2
modifications: N-terminus assumed
SMILES: CC[C@H](C)[C@H](NC(=O)[C@H](Cc1ccccc1)NC(=O)[C@H](C)NC(=O)[C@H](Cc1c[nH]cn1)NC(=O)[C@H](CCC(N)=O)NC(=O)[C@H](C)NC(=O)[C@H](CCCCNC(=O)CC[C@H](NC(=O)CC[C@H](NC(=O)CCCCCCCCCCCCCCCCCCC(=O)O)C(=O)O)C(=O)O)NC(=O)[C@H](CCCCN)NC(=O)[C@H](CC(=O)O)NC(=O)[C@H](CC(C)C)NC(=O)[C@](C)(CC(C)C)NC(=O)[C@@H](NC(=O)[C@H](CO)NC(=O)[C@H](Cc1ccc(O)cc1)NC(=O)[C@H](CC(=O)O)NC(=O)[C@H](CO)NC(=O)[C@@H](NC(=O)[C@H](Cc1ccccc1)NC(=O)[C@@H](NC(=O)CNC(=O)[C@H](CCC(N)=O)NC(=O)C(C)(C)NC(=O)[C@@H](N)Cc1ccc(O)cc1)[C@@H](C)O)[C@@H](C)O)[C@@H](C)CC)C(=O)N[C@@H](CCC(=O)O)C(=O)N[C@@H](Cc1ccc(O)cc1)C(=O)N[C@@H](CC(C)C)C(=O)N[C@@H](CC(C)C)C(=O)N[C@@H](CCC(=O)O)C(=O)NCC(=O)NCC(=O)N1CCC[C@H]1C(=O)N[C@@H](CO)C(=O)N[C@@H](CO)C(=O)NCC(=O)N[C@@H](C)C(=O)N1CCC[C@H]1C(=O)N1CCC[C@H]1C(=O)N1CCC[C@H]1C(=O)N[C@@H](CO)C(N)=O
B2: the results for the cAMP EC50 (0.1% casein) in experiment [1], in experiment [2] and in experiment [3] were 0.0522 nM, 0.0931 nM and 0.139 nM, respectively. Moreover, the cAMP EC50 (FBS and BSA present) was determined as 4.17 nM in experiment [1], 9.76 nM in experiment [2] and 6.32 nM in experiment [3]. Moreover, the inhibitory constant (Ki) in experiment [4] is 0.126 nM; in experiment [5], 11.5 nM; in experiment [6], 8.27 nM.

B3: Example 1 (peptide)
peptide: H-Y[Aib]QGTFTSDYSI[αMeL]LDKK([AEEA-AEEA-γGlu-C20 diacid])AQ[αMeK]AFIEYLLA[Aib]GPSSGAPPPS-NH2
SMILES: CC[C@H](C)[C@H](NC(=O)[C@H](Cc1ccccc1)NC(=O)[C@H](C)NC(=O)[C@](C)(CCCCN)NC(=O)[C@H](CCC(N)=O)NC(=O)[C@H](C)NC(=O)[C@H](CCCCNC(=O)COCCOCCNC(=O)COCCOCCNC(=O)CC[C@H](NC(=O)CCCCCCCCCCCCCCCCCCC(=O)O)C(=O)O)NC(=O)[C@H](CCCCN)NC(=O)[C@H](CC(=O)O)NC(=O)[C@H](CC(C)C)NC(=O)[C@](C)(CC(C)C)NC(=O)[C@@H](NC(=O)[C@H](CO)NC(=O)[C@H](Cc1ccc(O)cc1)NC(=O)[C@H](CC(=O)O)NC(=O)[C@H](CO)NC(=O)[C@@H](NC(=O)[C@H](Cc1ccccc1)NC(=O)[C@@H](NC(=O)CNC(=O)[C@H](CCC(N)=O)NC(=O)C(C)(C)NC(=O)[C@@H](N)Cc1ccc(O)cc1)[C@@H](C)O)[C@@H](C)O)[C@@H](C)CC)C(=O)N[C@@H](CCC(=O)O)C(=O)N[C@@H](Cc1ccc(O)cc1)C(=O)N[C@@H](CC(C)C)C(=O)N[C@@H](CC(C)C)C(=O)N[C@@H](C)C(=O)NC(C)(C)C(=O)NCC(=O)N1CCC[C@H]1C(=O)N[C@@H](CO)C(=O)N[C@@H](CO)C(=O)NCC(=O)N[C@@H](C)C(=O)N1CCC[C@H]1C(=O)N1CCC[C@H]1C(=O)N1CCC[C@H]1C(=O)N[C@@H](CO)C(N)=O
On to B3, for which the cAMP EC50 (0.1% casein) in experiment [1] was found to be 0.0523 nM; in experiment [2] it was 0.153 nM; in experiment [3] it was 0.114 nM. In addition, the cAMP EC50 (FBS and BSA present) was found to be 0.914 nM in experiment [1], 7.49 nM in experiment [2] and 2.54 nM in experiment [3]. Moreover, the Ki in experiment [4] amounted to 0.0469 nM; in experiment [5], 2.64 nM; in experiment [6], 8.41 nM.
Regarding Y[Aib]QGTFTSDYSI[αMeL]LDKK([AEEA-γGlu-C20 diacid])AQHAFIEYLLEGGPSSGAPPPS-NH2 [Example 10], the cAMP EC50 (0.1% casein) in experiment [1] stood at 0.0928 nM; in experiment [2], 0.143 nM; in experiment [3] it was 0.123 nM. The figures for the cAMP EC50 (FBS and BSA present) in experiment [1], in experiment [2] and in experiment [3] were 4.3 nM, 19.3 nM and 8.42 nM, respectively. In addition, the Ki in experiment [4] was 0.118 nM; in experiment [5] it was 12 nM; in experiment [6], 7.37 nM.
